{"source": "patent US6335013B1", "about": "“Methods and materials relating to CD39-like polypeptides” (Hyseq, Inc., priority 1999, dated 2002)", "molecules": {"B1": {"name": "CD39: 510-amino acid cell-surface ecto-apyrase (ATPDase) (protein, UniProt P49961 1-510, looked up)", "Ectonucleoside triphosphate …": "MEDTKESNVKTFCSKNILAILGFSSIIAVIALLAVGLTQNKALPENVKYGIVLDAGSSHTSLYIYKWPAEKENDTGVVHQVEECRVKGPGISKFVQKVNEIGIYLTDCMERAREVIPRSQHQETPVYLGATAGMRLLRMESEELADRVLDVVERSLSNYPFDFQGARIITGQEEGAYGWITINYLLGKFSQKTRWFSIVPYETNNQETFGALDLGGASTQVTFVPQNQTIESPDNALQFRLYGKDYNVYTHSFLCYGKDQALWQKLAKDIQVASNEILRDPCFHPGYKKVVNVSDLYKTPCTKRFEMTLPFQQFEIQGIGNYQQCHQSILELFNTSYCPYSQCAFNGIFLPPLQGDFGAFSAFYFVMKFLNLTSEKVSQEKVTEMMKKFCAQPWEEIKTSYAGVKEKYLSEYCFSGTYILSLLLQGYHFTADSWEHIHFIGKIQGSDAGWTLGYMLNLTNMIPAEQPLSTPLSHSTYVFLMVLFSLVLFTVAIIGLLIFHKPSYFWKDMV"}, "B2": {"name": "CD39L4 dimer: dimeric form of secreted CD39L4 (protein, UniProt O75356 25-428, looked up)", "Nucleoside diphosphate …": "NQQTWFEGIFLSSMCPINVSASTLYGIMFDAGSTGTRIHVYTFVQKMPGQLPILEGEVFDSVKPGLSAFVDQPKQGAETVQGLLEVAKDSIPRSHWKKTPVVLKATAGLRLLPEHKAKALLFEVKEIFRKSPFLVPKGSVSIMDGSDEGILAWVTVNFLTGQLHGHRQETVGTLDLGGASTQITFLPQFEKTLEQTPRGYLTSFEMFNSTYKLYTHSYLGFGLKAARLATLGALETEGTDGHTFRSACLPRWLEAEWIFGGVKYQYGGNQEGEVGFEPCYAEVLRVVRGKLHQPEEVQRGSFYAFSYYYDRAVDTDMIDYEKGGILKVEDFERKAREVCDNLENFTSGSPFLCMDLSYITALLKDGFGFADSTVLQLTKKVNNIETGWALGATFHLLQSLGISH", "modifications": "dimer"}, "B3": {"name": "deglycosylated CD39-L4: CD39-L4 from tunicamycin treated COS-7 cells (protein, UniProt O75356 25-428, looked up)", "Nucleoside diphosphate …": "B2 Nucleoside diphosphate …", "modifications": "deglycosylated (tunicamycin)", "notes": "CD39-L4 from tunicamycin treated COS-7 cells"}, "B4": {"name": "CD39-L66: isoform (splice variant) of CD39-L4, amino acid sequence SEQ ID NO: 25 (protein)", "chain": "MATSWGTVFFMLVVSCVCSAVSHRNQQTWFEGIFLSSMCPINVSASTLYGIMFDAGSTGTRIHVYTFVQKMPGQLPILEGEVFDSVKPGLSAFVDQPKQGAETVQGLLEVAKDSIPRSHWKKTPVVLKATAGLRLLPEHKAKALLFEVKEIFRKSPFLVPKGSVSIMDGSDEGILAWVTVNFLTGQLHGHRQETVGTLDLGGASTQITFLPQFEKTLEQTPRGYLTSFEMFNSTYKLYTHSYLGFGLKAARLATLGALETEGTDGHTFRSACLPRWLEAEWIFGGVKYQYGGNQEGEVGFEPCYAEVLRVVRGKLHQPEEVQRGSFYAFSYYYDRAVDTDMIDYEKGGILKVEDFERKAREVCDNLENFTSGSPFLCMDLSYITALLKDGFGFADSTVLQAAVLR"}, "B5": {"name": "CD39-L4: novel human CD39-like protein, 428 amino acids, amino acid sequence SEQ ID NO: 3; soluble apyrase specific for NDPs (protein)", "chain": "MATSWGTVFFMLVVSCVCSAVSHRNQQTWFEGIFLSSMCPINVSASTLYGIMFDAGSTGTRIHVYTFVQKMPGQLPILEGEVFDSVKPGLSAFVDQPKQGAETVQGLLEVAKDSIPRSHWKKTPVVLKATAGLRLLPEHKAKALLFEVKEIFRKSPFLVPKGSVSIMDGSDEGILAWVTVNFLTGQLHGHRQETVGTLDLGGASTQITFLPQFEKTLEQTPRGYLTSFEMFNSTYKLYTHSYLGFGLKAARLATLGALETEGTDGHTFRSACLPRWLEAEWIFGGVKYQYGGNQEGEVGFEPCYAEVLRVVRGKLHQPEEVQRGSFYAFSYYYDRAVDTDMIDYEKGGILKVEDFERKAREVCDNLENFTSGSPFLCMDLSYITALLKDGFGFADSTVLQLTKKVNNIETGWALGATFHLLQSLGISH"}}, "key": {"COS-7 cells [1]": {"test_system": "COS-7 cells", "test": "Brefeldin A treatment of COS-7 cells transfected with CD39-L2, secretion", "format": "cell-based", "conditions": "transfected COS-7 cells, 8 hours, varying dosages"}, "COS-7 cells [2]": {"test_system": "COS-7 cells", "test": "Brefeldin A treatment of COS-7 cells transfected with CD39-L4-6His, secretion", "format": "cell-based", "conditions": "transfected COS-7 cells, 8 hours, increasing dosages"}, "[3]": {"conditions": "membrane bound or engineered soluble form; cited from earlier work"}, "[4]": {"test": "ADPase activity of CD39-L4 forms (insect-expressed, dimer, deglycosylated)", "format": "biochemical"}, "[5]": {"test": "Assay for ATPase activity, [33P]Pi released from [γ33P]ATP", "format": "biochemical", "conditions": "transfected COS-7 cells, 10 μCi [γ33P]ATP, one hour, 37° C."}, "[6]": {"test": "Kinetic characteristics of CD39L4 ADP hydrolysis", "format": "biochemical"}, "[7]": {"test": "ADPase activity of CD39-L4 from transfected COS-7 cells, stimulation by divalent cations", "format": "biochemical", "conditions": "1 mM ADP"}, "[8]": {"test": "ADPase and ATPase activity of CD39L4 wild type and ACR mutants, inorganic phosphate released", "format": "biochemical"}}, "data": [{"molecule": "C[C@H]1CCC/C=C/[C@@H]2C[C@H](O)C[C@H]2[C@H](O)/C=C/C(=O)O1", "note": "[brefeldin A]", "values": [{"measurement": "effect on recombinant CD39-L2 in the media", "setting": "COS-7 cells [1]", "value": "decreased in a brefeldin A dose dependent manner"}, {"measurement": "effect on secretion of CD39-L4-6His", "setting": "COS-7 cells [2]", "value": "blocked secretion of CD39-L4-6His"}]}, {"molecule": "B1", "values": [{"measurement": "hydrolysis of ATP and ADP, in words", "setting": "[3]", "value": "able to hydrolyze both ATP and ADP substrates efficiently"}]}, {"molecule": "B2", "values": [{"measurement": "enzymatic (ADPase) activity of the dimer", "setting": "[4]; monomer and dimer enriched sucrose density gradient fractions", "value": "does not possess any significant level of enzymatic activity"}]}, {"molecule": "B3", "values": [{"measurement": "ADPase activity of deglycosylated protein", "setting": "[4]; from tunicamycin (5 μg/ml) treated COS-7 cells", "value": "comparable to an equal amount of the glycosylated protein"}]}, {"molecule": "B4", "values": [{"measurement": "increase in ATPase activity over cells transfected with vector alone", "setting": "[5]", "value": "at least a four fold increase in activity"}]}, {"molecule": "B5", "values": [{"measurement": "cooperativity of ADPase activity, in words", "setting": "[6]", "value": "does not appear to possess cooperativity"}, {"measurement": "Vmax of ADP hydrolysis", "setting": "[6]; 15 mM CaCl2, ADP 0.75-18 mM, 37° C., 15 min, 60 ng protein per reaction, Michaelis-Menten fit", "value": 1191, "unit": "pmol/min"}, {"measurement": "Km", "setting": "[6]; 15 mM CaCl2, ADP 0.75-18 mM, 37° C., 15 min, Michaelis-Menten fit", "value": 12.7, "unit": "mM"}, {"measurement": "turnover number, kcat, ADP as substrate", "setting": "[6]; assuming 60 ng protein and 46000 g/mol", "value": 15.2, "unit": "s⁻¹"}, {"measurement": "fold increase in ADPase activity over cells transfected with vector alone", "setting": "[7]; CD39-L4-6His from COS-7 medium on Nickel-NTA resin, 37° C., 30 min, no added cation", "value": 2.3, "unit": "fold"}, {"measurement": "fold increase in ADPase activity when Ca2+ added", "setting": "[7]; Ca2+ added", "value": 3.6, "unit": "fold"}, {"measurement": "fold increase in ADPase activity when Mg2+ added", "setting": "[7]; Mg2+ added", "value": 6, "unit": "fold"}, {"measurement": "increase in ATPase activity over cells transfected with vector alone", "setting": "[5]", "value": "at least a four fold increase in activity"}, {"measurement": "hydrolysis of ADP, in words", "setting": "[8]; ADP as substrate", "value": "hydrolyze ADP"}, {"measurement": "hydrolysis of ATP, in words", "setting": "[8]; ATP as substrate", "value": "neither the CD39L4 nor the CD39L4 mutant, ACR III, catalyzed hydrolysis"}]}]}
